Results taken from doi:10.1101/2021.12.10.472004 (bioRxiv, 2021).

B1: peroxiredoxin PRDX2 (enzyme, human (endogenous in red blood cells), UniProt P32119 1-198, looked up)
chain: MASGNARIGKPAPDFKATAVVDGAFKEVKLSDYKGKYVVLFFYPLDFTFVCPTEIIAFSNRAEDFRKLGCEVLGVSVDSQFTHLAWINTPRKEGGLGPLNIPLLADVTRRLSEDYGVLKTDEGIAYRGLFIIDGKGVLRQITVNDLPVGRSVDEALRLVQAFQYTDEHGEVCPAGWKPGSDTIKPNVDDSKEYFSKHN

Assays:
[1] = target: 20S proteasome (human (endogenous in red blood cells)) (UniProt P25786); test: negative stain electron microscopy
Chain of 20S proteasome (human (endogenous in red blood cells)) (P25786 whole entry, looked up): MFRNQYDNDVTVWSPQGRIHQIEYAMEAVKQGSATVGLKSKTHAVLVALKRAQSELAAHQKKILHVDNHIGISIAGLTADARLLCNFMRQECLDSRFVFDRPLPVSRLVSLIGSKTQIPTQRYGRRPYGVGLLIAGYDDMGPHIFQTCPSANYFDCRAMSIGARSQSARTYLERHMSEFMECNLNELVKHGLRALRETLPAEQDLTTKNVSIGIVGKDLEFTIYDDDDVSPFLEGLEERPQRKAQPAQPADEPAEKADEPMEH

[2] = target: the molecule itself; test: negative stain electron microscopy

Row | Molecule | percent of the observed proteasomes that were singly-capped 26S [1] [%] | stoichiometry N [2]
1 | 19S regulatory cap of the proteasome (complex) | 6 | –
2 | B1 | – | 10
